Test results as given in patent US9937235B2, “Lipidated peptides as anti-obesity agents” (USTAV ORGANICKE CHEMIE A BIOCHEMIE AKADEMIE VED CR, V.V.I, priority 2012, dated 2018).
Where no end group is shown, it is not given here. [ ]: non-standard residue; d: D form. The star is where a group is joined. Phe(F5) = N[C@@H](Cc1c(F)c(F)c(F)c(F)c1F)C(=O)O; 1Nal = N[C@@H](Cc1cccc2ccccc12)C(=O)O; Stearoyl = CCCCCCCCCCCCCCCCCC(=O)*; Palmitoyl = CCCCCCCCCCCCCCCC(=O)*; Myristoyl = CCCCCCCCCCCCCC(=O)*; PheCl2 = dichlorophenylalanine; Lauroyl = CCCCCCCCCCCC(=O)*; PheNO2 = nitrophenylalanine; Decanoyl = CCCCCCCCCC(=O)*; Nle = CCCC[C@H](N)C(=O)O; Octanoyl = CCCCCCCC(=O)*; Sar = CNCC(=O)O

T1: rat PrRP receptor in RC-4B/C cells (rat, UniProt Q64121 1-370)
T1 construct: whole, on cells; also called the rat receptor; GPR10
T1 sequence (looked up): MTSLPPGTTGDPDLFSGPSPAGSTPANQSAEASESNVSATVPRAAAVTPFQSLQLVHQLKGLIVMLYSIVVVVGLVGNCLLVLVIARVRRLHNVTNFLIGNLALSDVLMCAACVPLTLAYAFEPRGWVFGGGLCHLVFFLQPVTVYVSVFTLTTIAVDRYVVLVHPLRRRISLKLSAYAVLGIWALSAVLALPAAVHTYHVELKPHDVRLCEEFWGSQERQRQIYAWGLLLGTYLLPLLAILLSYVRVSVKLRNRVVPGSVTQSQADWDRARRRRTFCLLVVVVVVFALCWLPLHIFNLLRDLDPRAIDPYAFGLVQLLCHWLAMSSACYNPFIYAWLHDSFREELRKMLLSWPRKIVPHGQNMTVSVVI

T2: human PrRP receptor, GPR10, transfected in CHO cells (human, UniProt P49683 1-370)
T2 construct: whole, on cells; also called human GPR10 receptor; the human receptor GPR10 in CHO cells
T2 sequence (looked up): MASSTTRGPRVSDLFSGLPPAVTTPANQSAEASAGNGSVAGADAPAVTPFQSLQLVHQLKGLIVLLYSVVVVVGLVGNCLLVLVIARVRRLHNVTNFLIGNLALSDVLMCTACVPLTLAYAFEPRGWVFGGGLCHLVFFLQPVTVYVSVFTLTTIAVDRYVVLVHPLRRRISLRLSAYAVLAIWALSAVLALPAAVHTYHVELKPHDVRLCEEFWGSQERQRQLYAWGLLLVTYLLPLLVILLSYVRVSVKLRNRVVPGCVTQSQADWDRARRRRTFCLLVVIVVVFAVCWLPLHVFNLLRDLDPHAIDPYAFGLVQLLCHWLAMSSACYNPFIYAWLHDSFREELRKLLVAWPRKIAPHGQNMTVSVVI


Tests used:
[1] = target: T1, rat PrRP receptor in RC-4B/C cells; assay: competition with 125I-rat PrRP31 on RC-4B/C cells
Protocol: The rat pituitary cell line RC-4B/C (ATCC, Manassas, USA) was grown on 24-well plates which had their bottom coated with polyethyleneimine. The cells were grown to the optimal density of 300-450 thousand per well.
(§1) Plates were incubated for 60 minutes at room temperature. After incubation, the cells were solubilized in 0.1 mol/l solution of NaOH and the radioactivity bound to the cells was counted using a γ-counter. The experiments were performed in duplicate and repeated at least three times.
For evaluation of competitive binding experiments, the program Graph Pad Prism Software (San Diego, Calif., USA) was used. A method of nonlinear regression assuming one-site binding was used.

[2] = target: T2, human PrRP receptor, GPR10, transfected …; assay: competition with 125I-human PrRP31 on CHO cells with transfected human GPR10
Protocol: CHO cells with transfected human PrRP receptor, GPR10 (Perkin Elmer, USA) were grown on 24-well plates coated with polyethyleneimine. The cells were grown to the optimal density of 40-80 thousand cells per well.
as §1

Binder | Ki [1] | Ki [2]
[code f][code r]GVPRIGRGTYWAPNIDPT-NH2 [analog no. 36] | 5200 nM | 6290 nM
Palmitoyl-SRAHQHS[Nle]ETRTPDINPAWYTGRGIRPVGR[PheNO2]-NH2 [analog no. 29] | 0.58 nM | 0.77 nM
Palmitoyl-SRAHQHS[Nle]ETRTPDINPAWYTGRGIRPVGR[PheCl2]-NH2 [analog no. 26] | 1.3 nM | 1.05 nM
Stearoyl-SRAHQHS[Nle]ETRTPDINPAWYTGRGIRPVGRF-NH2 [analog no. 20] | 0.96 nM | 5.39 nM
SRAHQHS[Nle]ETRTPDINPAWYTGRGIRPVGRF-NH2 [analog no. 14] | 1.28 nM | 1.92 nM
Myristoyl-SRAHQHS[Nle]ETRTPDINPAWYTGRGIRPVGR[1Nal]-NH2 [analog no. 22] | 3.96 nM | 1.33 nM
Palmitoyl-SRAHQHS[Nle]ETRTPDINPAWYTGRGIRPVGR[1Nal]-NH2 [analog no. 23] | 2.17 nM | 4.27 nM
Octanoyl-SRAHQHS[Nle]ETRTPDINPAWYTGRGIRPVGRF-NH2 [analog no. 15] | 0.98 nM | 1.53 nM
Myristoyl-SRAHQHS[Nle]ETRTPDINPAWYTGRGIRPVGR[PheNO2]-NH2 [analog no. 28] | 1.97 nM | 1.59 nM
SRAHQHS[Nle]ETRTPDINPAWYTGRGIRPVGR[Phe(F5)]-NH2 [analog no. 32] | 9.69 nM | 8.59 nM
Lauroyl-SRAHQHS[Nle]ETRTPDINPAWYTGRGIRPVGRF-NH2 [analog no. 17] | 0.39 nM | 1.19 nM
Palmitoyl-SRAHQHS[Nle]ETRTPDINPAWYTGRGIRPVGRF-NH2 [analog no. 19] | 0.51 nM | 3.03 nM
Myristoyl-SRAHQHS[Nle]ETRTPDINPAWYTGRGIRPVGRF-NH2 [analog no. 18] | 0.69 nM | 0.71 nM
Decanoyl-SRAHQHS[Nle]ETRTPDINPAWYTGRGIRPVGRF-NH2 [analog no. 16] | 0.65 nM | 1.46 nM
TPDINPAWYTGR[Sar]IRPVGRF-NH2 (N-terminus assumed; SMILES CC[C@H](C)[C@H](NC(=O)CN(C)C(=O)[C@H](CCCNC(=N)N)NC(=O)CNC(=O)[C@@H](NC(=O)[C@H](Cc1ccc(O)cc1)NC(=O)[C@H](Cc1c[nH]c2ccccc12)NC(=O)[C@H](C)NC(=O)[C@@H]1CCCN1C(=O)[C@H](CC(N)=O)NC(=O)[C@@H](NC(=O)[C@H](CC(=O)O)NC(=O)[C@@H]1CCCN1C(=O)[C@@H](N)[C@@H](C)O)[C@@H](C)CC)[C@@H](C)O)C(=O)N[C@@H](CCCNC(=N)N)C(=O)N1CCC[C@H]1C(=O)N[C@H](C(=O)NCC(=O)N[C@@H](CCCNC(=N)N)C(=O)N[C@@H](Cc1ccccc1)C(N)=O)C(C)C) [analog no. 38] | 7.94 nM | 4.51 nM
Myristoyl-TPDINPAWYTGR[Sar]IRPVGRF-NH2 (SMILES CCCCCCCCCCCCCC(=O)N[C@H](C(=O)N1CCC[C@H]1C(=O)N[C@@H](CC(=O)O)C(=O)N[C@H](C(=O)N[C@@H](CC(N)=O)C(=O)N1CCC[C@H]1C(=O)N[C@@H](C)C(=O)N[C@@H](Cc1c[nH]c2ccccc12)C(=O)N[C@@H](Cc1ccc(O)cc1)C(=O)N[C@H](C(=O)NCC(=O)N[C@@H](CCCNC(=N)N)C(=O)N(C)CC(=O)N[C@H](C(=O)N[C@@H](CCCNC(=N)N)C(=O)N1CCC[C@H]1C(=O)N[C@H](C(=O)NCC(=O)N[C@@H](CCCNC(=N)N)C(=O)N[C@@H](Cc1ccccc1)C(N)=O)C(C)C)[C@@H](C)CC)[C@@H](C)O)[C@@H](C)CC)[C@@H](C)O) [analog no. 39] | 0.32 nM | 3.12 nM

More lines, in order of falling Ki [1], values ahead:

Ki [1] | Ki [2] | Binder
123 nM | 262 nM | Myristoyl-SHQRPADTHWYPRG[Nle]FPTIGRITARNGEVSR (printed without a C-terminal amide) [analog no. 31]
102 nM | 34.5 nM | SRAHQHS[Nle]ETRTPDINPAWYTGRGIRPVGR[1Nal]-NH2 [analog no. 21]
19.9 nM | 4.8 nM | SRAHQHS[Nle]ETRTPDINPAWYTGRGIRPVGR[PheNO2]-NH2 [analog no. 27]
3.84 nM | 2.27 nM | SRAHQHS[Nle]ETRTPDINPAWYTGRGIRPVGR[PheCl2]-NH2 [analog no. 24]
3.25 nM | 2.02 nM | SRAHQHS[Nle]ETRTPDINPAWYTGRGIRPVGRY-NH2 (N-terminus assumed; SMILES CCCC[C@H](NC(=O)[C@H](CO)NC(=O)[C@H](Cc1c[nH]cn1)NC(=O)[C@H](CCC(N)=O)NC(=O)[C@H](Cc1c[nH]cn1)NC(=O)[C@H](C)NC(=O)[C@H](CCCNC(=N)N)NC(=O)[C@@H](N)CO)C(=O)N[C@@H](CCC(=O)O)C(=O)N[C@H](C(=O)N[C@@H](CCCNC(=N)N)C(=O)N[C@H](C(=O)N1CCC[C@H]1C(=O)N[C@@H](CC(=O)O)C(=O)N[C@H](C(=O)N[C@@H](CC(N)=O)C(=O)N1CCC[C@H]1C(=O)N[C@@H](C)C(=O)N[C@@H](Cc1c[nH]c2ccccc12)C(=O)N[C@@H](Cc1ccc(O)cc1)C(=O)N[C@H](C(=O)NCC(=O)N[C@@H](CCCNC(=N)N)C(=O)NCC(=O)N[C@H](C(=O)N[C@@H](CCCNC(=N)N)C(=O)N1CCC[C@H]1C(=O)N[C@H](C(=O)NCC(=O)N[C@@H](CCCNC(=N)N)C(=O)N[C@@H](Cc1ccc(O)cc1)C(N)=O)C(C)C)[C@@H](C)CC)[C@@H](C)O)[C@@H](C)CC)[C@@H](C)O)[C@@H](C)O, Tyr at position 31 in place of Phe) [analog no. 34]
1.79 nM | 0.95 nM | Myristoyl-SRAHQHS[Nle]ETRTPDINPAWYTGRGIRPVGR[PheCl2]-NH2 [analog no. 25]
0.51 nM | 1.92 nM | Palmitoyl-SRAHQHS[Nle]ETRTPDINPAWYTGRGIRPVGR[Phe(F5)]-NH2 [analog no. 33]
0.44 nM | 1.57 nM | Palmitoyl-SRAHQHS[Nle]ETRTPDINPAWYTGRGIRPVGRY-NH2 (SMILES CCCCCCCCCCCCCCCC(=O)N[C@@H](CO)C(=O)N[C@@H](CCCNC(=N)N)C(=O)N[C@@H](C)C(=O)N[C@@H](Cc1c[nH]cn1)C(=O)N[C@@H](CCC(N)=O)C(=O)N[C@@H](Cc1c[nH]cn1)C(=O)N[C@@H](CO)C(=O)N[C@@H](CCCC)C(=O)N[C@@H](CCC(=O)O)C(=O)N[C@H](C(=O)N[C@@H](CCCNC(=N)N)C(=O)N[C@H](C(=O)N1CCC[C@H]1C(=O)N[C@@H](CC(=O)O)C(=O)N[C@H](C(=O)N[C@@H](CC(N)=O)C(=O)N1CCC[C@H]1C(=O)N[C@@H](C)C(=O)N[C@@H](Cc1c[nH]c2ccccc12)C(=O)N[C@@H](Cc1ccc(O)cc1)C(=O)N[C@H](C(=O)NCC(=O)N[C@@H](CCCNC(=N)N)C(=O)NCC(=O)N[C@H](C(=O)N[C@@H](CCCNC(=N)N)C(=O)N1CCC[C@H]1C(=O)N[C@H](C(=O)NCC(=O)N[C@@H](CCCNC(=N)N)C(=O)N[C@@H](Cc1ccc(O)cc1)C(N)=O)C(C)C)[C@@H](C)CC)[C@@H](C)O)[C@@H](C)CC)[C@@H](C)O)[C@@H](C)O, Tyr at position 31 in place of Phe) [analog no. 35]
